Measurements taken from paper PMC8191317, “Structural and functional analysis of lignostilbene dioxygenases from Sphingobium sp. SYK-6” (The Journal of Biological Chemistry, 2021).

T1: LSD3 (Sphingobium sp. SYK-6, UniProt G2IPX7)
T1 construct: gene SLG_11300; pET41b, E. coli BL21(DE3) lysate
T1 sequence (G2IPX7 1-491): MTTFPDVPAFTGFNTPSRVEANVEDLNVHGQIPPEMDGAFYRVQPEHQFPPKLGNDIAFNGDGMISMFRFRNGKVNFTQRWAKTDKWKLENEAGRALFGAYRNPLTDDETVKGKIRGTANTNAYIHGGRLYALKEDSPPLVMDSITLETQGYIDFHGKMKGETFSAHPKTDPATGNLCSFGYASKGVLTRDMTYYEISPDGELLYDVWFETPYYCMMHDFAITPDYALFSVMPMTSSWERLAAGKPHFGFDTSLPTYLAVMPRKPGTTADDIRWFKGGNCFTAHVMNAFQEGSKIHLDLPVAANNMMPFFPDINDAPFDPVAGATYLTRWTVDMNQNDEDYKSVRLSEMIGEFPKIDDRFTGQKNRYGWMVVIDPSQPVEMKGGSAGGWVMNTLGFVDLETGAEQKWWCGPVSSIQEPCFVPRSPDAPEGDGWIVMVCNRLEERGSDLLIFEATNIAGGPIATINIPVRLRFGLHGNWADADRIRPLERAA

T2: LSD2 (Sphingobium sp. SYK-6, UniProt G2IQG5)
T2 construct: gene SLG_36640; pET41b, E. coli BL21(DE3) lysate, co-produced with GroEL/GroES
T2 sequence (G2IQG5 1-490): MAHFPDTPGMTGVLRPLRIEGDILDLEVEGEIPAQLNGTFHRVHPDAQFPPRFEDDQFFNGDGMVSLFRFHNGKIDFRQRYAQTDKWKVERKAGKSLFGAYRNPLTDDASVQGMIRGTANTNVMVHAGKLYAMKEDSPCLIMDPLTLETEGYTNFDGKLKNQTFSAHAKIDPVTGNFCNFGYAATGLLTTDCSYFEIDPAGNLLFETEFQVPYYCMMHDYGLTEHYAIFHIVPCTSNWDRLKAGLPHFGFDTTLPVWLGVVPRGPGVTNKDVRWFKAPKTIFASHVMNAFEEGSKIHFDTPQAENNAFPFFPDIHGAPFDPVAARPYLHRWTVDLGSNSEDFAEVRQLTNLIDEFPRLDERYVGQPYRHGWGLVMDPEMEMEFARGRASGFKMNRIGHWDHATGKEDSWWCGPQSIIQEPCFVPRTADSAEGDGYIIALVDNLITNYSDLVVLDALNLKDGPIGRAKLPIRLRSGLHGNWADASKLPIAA


Assays:
LSD3 = target: T1, LSD3; experiment: oxygraph O2 consumption, E. coli lysate; format: biochemical; conditions: 100 μM substrate
LSD2 = target: T2, LSD2; experiment: oxygraph O2 consumption, E. coli lysate; format: biochemical; conditions: 100 μM substrate
[1] = target: LSD4 (lignostilbene-α,β-dioxygenase 4) from Sphingobium sp. SYK-6 (Sphingobium sp. SYK-6); experiment: SEC-MALS; LSD4 at 2 mg/ml in 20 mM HEPES, pH 7.5, 100 mM NaCl, Superdex 75 10/300 GL, 0.4 ml/min, room temperature
[2] = substrate: COc1cc(/C=C/c2cc(/C=C/C(=O)O)cc(OC)c2O)ccc1O; experiment: O2 electrode (oxygraph) steady-state kinetics; format: biochemical, Sphingobium sp. SYK-6; conditions: air-saturated HEPES I = 0.1 M, pH 7.5, 25 °C
Source text: (§1) O2 electrode (oxygraph) steady-state kinetics on LSD4

[3] = substrate: COc1cc(/C=C/c2ccc(O)c(OC)c2)ccc1O; experiment: O2 electrode (oxygraph) steady-state kinetics; format: biochemical, Sphingobium sp. SYK-6; conditions: air-saturated HEPES I = 0.1 M, pH 7.5, 25 °C
Source text: as §1

[4] = substrate: COc1cc(/C=C/c2ccc(O)cc2)cc(OC)c1; experiment: O2 electrode (oxygraph) steady-state kinetics; format: biochemical, Sphingobium sp. SYK-6; conditions: air-saturated HEPES I = 0.1 M, pH 7.5, 25 °C
Source text: as §1

[5] = substrate: Oc1ccc(/C=C/c2cc(O)cc(O)c2)cc1; experiment: O2 electrode (oxygraph) steady-state kinetics; format: biochemical, Sphingobium sp. SYK-6; conditions: air-saturated HEPES I = 0.1 M, pH 7.5, 25 °C
Source text: as §1

stoichiometry N [1]	Molecule	relative activity (LSD3)	relative activity (LSD2)	Km [2]	kcat [2]	kcat/Km [2]	Km [3]	kcat [3]	kcat/Km [3]	Km [4]	kcat [4]	kcat/Km [4]	Km [5]	kcat [5]	kcat/Km [5]
–	COc1cc(/C=C/c2cc(/C=C/C(=O)O)cc(OC)c2O)ccc1O [compound 1, 3-(4-hydroxy-3-(4-hydroxy-3-methoxystyryl)-5-methoxyphenyl) acrylate]	lysates containing LSD2, LSD3, or LSD4 preferentially cleaved DCA-S over lignostilbene	lysates containing LSD2, LSD3, or LSD4 preferentially cleaved DCA-S over lignostilbene	–	–	–	–	–	–	–	–	–	–	–	–
2	LSD4 (lignostilbene-α,β-dioxygenase 4) from Sphingobium sp. SYK-6 (enzyme)	–	–	–	–	–	–	–	–	–	–	–	–	–	–
–	LSD4 (Sphingobium sp. SYK-6) (protein, residues 2-489 modelled; Fe2+ enzyme, Co-LSD4 for complexes) MAHFPDTPAFTGFNAPSRIECDIPNLVHEGTIPPELNGAFFRVQPDPQFPPRLGDDISFNGDGMITRFHIHDGQCDIKQRWAKTNKWKLENAAGKALFGSYRNPLTDDESVKGEYRSTANTNAFVFAGKLWAMKEDSPSLTMDPATMETFGFEKFGGKMTGQTFTAHPKVDPLTGNMVAIGYAASGLCTDDVCLYEISPDGELIYEAWFKVPYYCMMHDFGVTKDYLVLHIVPSIGSWDRLEKGLPHFGFDTTLPVYLGIIPRRADLKQEDIRWFKRENCFASHVMNAFQEGTKVHVDVPEAENNMFPFFPDVHGAPFNPQQAMSRLTRWTVDMASNSDEFDSVTRLTETAGEFPRIDDRMTGLPYRYGWMLEMDMKRPVELKGGSAGGFLMNCLFLKDHQTGAEQHWWCGPTSSLQEPAFIPRSKDAPEGDGWIVQVCNRLADHKSDLLIFEALDIEKGPVATVHLPFALRFGLHGNWANAEEIGLAA	–	–	12 ± 1 µM	11 ± 1 s⁻¹	900000 ± 100000 M⁻¹ s⁻¹	13 ± 1 µM	18 ± 1 s⁻¹	1.4e+06 ± 100000 M⁻¹ s⁻¹	15 ± 2 µM	1.9 ± 0.1 s⁻¹	130000 ± 10000 M⁻¹ s⁻¹	22 ± 2 µM	2.1 ± 0.1 s⁻¹	90000 ± 10000 M⁻¹ s⁻¹
–	LSD4 (Sphingobium sp. SYK-6; S283A) (protein, residues 2-489 modelled; Fe2+ enzyme, Co-LSD4 for complexes) MAHFPDTPAFTGFNAPSRIECDIPNLVHEGTIPPELNGAFFRVQPDPQFPPRLGDDISFNGDGMITRFHIHDGQCDIKQRWAKTNKWKLENAAGKALFGSYRNPLTDDESVKGEYRSTANTNAFVFAGKLWAMKEDSPSLTMDPATMETFGFEKFGGKMTGQTFTAHPKVDPLTGNMVAIGYAASGLCTDDVCLYEISPDGELIYEAWFKVPYYCMMHDFGVTKDYLVLHIVPSIGSWDRLEKGLPHFGFDTTLPVYLGIIPRRADLKQEDIRWFKRENCFAAHVMNAFQEGTKVHVDVPEAENNMFPFFPDVHGAPFNPQQAMSRLTRWTVDMASNSDEFDSVTRLTETAGEFPRIDDRMTGLPYRYGWMLEMDMKRPVELKGGSAGGFLMNCLFLKDHQTGAEQHWWCGPTSSLQEPAFIPRSKDAPEGDGWIVQVCNRLADHKSDLLIFEALDIEKGPVATVHLPFALRFGLHGNWANAEEIGLAA	–	–	4.6 ± 0.5 µM	4.1 ± 0.1 s⁻¹	900000 ± 100000 M⁻¹ s⁻¹	10 ± 1 µM	15.3 ± 0.4 s⁻¹	1.5e+06 ± 100000 M⁻¹ s⁻¹	–	–	–	–	–	–
–	LSD4 (Sphingobium sp. SYK-6; S283F) (protein, residues 2-489 modelled; Fe2+ enzyme, Co-LSD4 for complexes) MAHFPDTPAFTGFNAPSRIECDIPNLVHEGTIPPELNGAFFRVQPDPQFPPRLGDDISFNGDGMITRFHIHDGQCDIKQRWAKTNKWKLENAAGKALFGSYRNPLTDDESVKGEYRSTANTNAFVFAGKLWAMKEDSPSLTMDPATMETFGFEKFGGKMTGQTFTAHPKVDPLTGNMVAIGYAASGLCTDDVCLYEISPDGELIYEAWFKVPYYCMMHDFGVTKDYLVLHIVPSIGSWDRLEKGLPHFGFDTTLPVYLGIIPRRADLKQEDIRWFKRENCFAFHVMNAFQEGTKVHVDVPEAENNMFPFFPDVHGAPFNPQQAMSRLTRWTVDMASNSDEFDSVTRLTETAGEFPRIDDRMTGLPYRYGWMLEMDMKRPVELKGGSAGGFLMNCLFLKDHQTGAEQHWWCGPTSSLQEPAFIPRSKDAPEGDGWIVQVCNRLADHKSDLLIFEALDIEKGPVATVHLPFALRFGLHGNWANAEEIGLAA	–	–	2.7 ± 0.5 µM	0.035 ± 0.001 s⁻¹	13000 ± 5000 M⁻¹ s⁻¹	8.5 ± 0.7 µM	0.14 ± 0.01 s⁻¹	16000 ± 2000 M⁻¹ s⁻¹	–	–	–	–	–	–
